Experimental data: patent US20210309759A1 (SUNSHINE GUOJIAN PHARMACEUTICAL SHANGHAI, published 2021)
Each block holds one binder with its values, some of them ahead of it. Ends that are not written are not given here. * marks the point of attachment. Biotin = O=C1N[C@H]2[C@H](CS[C@H]2CCCCC(=O)*)N1

Key:
[1] = molecular target: T1, HER2-ECD-E507A (human, UniProt P04626 23-652); experiment: ELISA on coated HER2-ECD-E507A; E507A mutant
T1 construct: Site-directed mutant of HER2-ECD-His-pTT5, expressed in HEK293E

[2] = molecular target: T2, human HER2-ECD protein (1 to 652 amino acids of NP_004439.2, 6xHis tag at the C-terminus) (human, UniProt P04626 23-652); experiment: ELISA on coated human HER2-ECD
T2 construct: Homemade, expressed in CHO cells from HER2-ECD-His-pTT5; also called HER2-ECD-His; HER2-ECD-fl(1-652)

[3] = molecular target: T3, HER2 on tumor cells with high HER2 expression (breast cancer cells BT474; SKBR3) (human, UniProt P04626 23-1255); experiment: FACS on BT474 cells
T3 construct: whole, on cells; Endogenous full-length receptor on human tumor cell lines; also called breast cancer cells BT474 (with high HER2 expression on the cell surface); HER2 in BT474 and SKBR3 cells

[4] = molecular target: T2, human HER2-ECD protein (1 to 652 amino …); experiment: ELISA on coated HER2-ECD protein; wild-type HER2-ECD
[5] = molecular target: T4, peptide HA-21, bio-HQALLHTANRPEDECVGEGLA (490-510) (N-terminal biotin); experiment: ELISA on biotin peptides of HER2-ECD DIII
T4 peptide: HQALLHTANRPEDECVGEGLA

[6] = molecular target: T5, HER2-ECD-DI-III; experiment: Western blot by the method of Example 3.2 (reduced-denatured protein)
T5 construct: Truncated human HER2-ECD construct; also called HER2-ECD-DI-DIII(1-510)
T5 receptor fragment: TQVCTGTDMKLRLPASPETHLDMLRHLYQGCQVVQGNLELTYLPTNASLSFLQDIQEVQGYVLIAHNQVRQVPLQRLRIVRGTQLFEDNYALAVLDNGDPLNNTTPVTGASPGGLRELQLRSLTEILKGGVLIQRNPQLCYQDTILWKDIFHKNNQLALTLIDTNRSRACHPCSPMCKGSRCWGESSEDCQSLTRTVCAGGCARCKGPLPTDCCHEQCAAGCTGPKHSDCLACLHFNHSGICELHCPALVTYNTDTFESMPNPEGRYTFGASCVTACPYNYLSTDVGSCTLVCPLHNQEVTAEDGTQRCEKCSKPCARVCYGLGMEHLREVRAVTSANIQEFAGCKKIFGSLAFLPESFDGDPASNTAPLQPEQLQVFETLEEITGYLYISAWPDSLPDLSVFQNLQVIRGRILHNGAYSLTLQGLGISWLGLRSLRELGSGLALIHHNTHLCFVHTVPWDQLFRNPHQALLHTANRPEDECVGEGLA

[7] = molecular target: T6, peptide 4-11 (E507A), bio-HTANRPEDECVGAGLA; experiment: ELISA on alanine scan biotin peptides
T6 peptide: Biotin-HTANRPEDECVGAGLA

[8] = molecular target: T7, peptide 4-10 (V505A), bio-HTANRPEDECAGEGLA; experiment: ELISA on alanine scan biotin peptides
T7 peptide: Biotin-HTANRPEDECAGEGLA

[9] = molecular target: T8, peptide 4-7 (D502A), bio-HTANRPEAECVGEGLA; experiment: ELISA on alanine scan biotin peptides
T8 peptide: Biotin-HTANRPEAECVGEGLA

[10] = molecular target: T9, peptide 4-12 (L509A), bio-HTANRPEDECVGEGAA; experiment: ELISA on alanine scan biotin peptides
T9 peptide: Biotin-HTANRPEDECVGEGAA

[11] = molecular target: T2, human HER2-ECD protein (1 to 652 amino …); experiment: competitive ELISA on coated human HER2-ECD; competitor: biotinylated 19H6 (10 ng/mL, mixed 1:1)
[12] = molecular target: T10, 495-510; experiment: peptide ELISA
T10 peptide: HTANRPEDECVGEGLA

[13] = molecular target: T11, peptide 3-4, bio-RPEDECVGEGLA (499-510); experiment: peptide ELISA
T11 peptide: Biotin-RPEDECVGEGLA

[14] = molecular target: T12, HER2-ECD-D502A (human, UniProt P04626 23-652); experiment: ELISA on coated HER2-ECD-D502A; D502A mutant
T12 construct: Site-directed mutant of HER2-ECD-His-pTT5, expressed in HEK293E

[15] = molecular target: T13, peptide 4-6, bio-HTANRPADECVGEGLA; experiment: peptide ELISA, alanine scan
T13 peptide: Biotin-HTANRPADECVGEGLA

[16] = molecular target: T14, peptide 4-8, bio-HTANRPEDACVGEGLA; experiment: peptide ELISA, alanine scan
T14 peptide: Biotin-HTANRPEDACVGEGLA

[17] = molecular target: T15, peptide 4-2, bio-HAANRPEDECVGEGLA; experiment: peptide ELISA, alanine scan
T15 peptide: Biotin-HAANRPEDECVGEGLA

[18] = molecular target: T16, peptide 4-9, bio-HTANRPEDEAVGEGLA; experiment: peptide ELISA, alanine scan
T16 peptide: Biotin-HTANRPEDEAVGEGLA

[19] = molecular target: T17, peptide 4-3, bio-HTAARPEDECVGEGLA; experiment: peptide ELISA, alanine scan
T17 peptide: Biotin-HTAARPEDECVGEGLA

[20] = molecular target: T18, peptide 4-4, bio-HTANAPEDECVGEGLA; experiment: peptide ELISA, alanine scan
T18 peptide: Biotin-HTANAPEDECVGEGLA

[21] = molecular target: T19, peptide 4-1, bio-ATANRPEDECVGEGLA; experiment: peptide ELISA, alanine scan
T19 peptide: Biotin-ATANRPEDECVGEGLA

[22] = molecular target: T20, peptide 4-5, bio-HTANRAEDECVGEGLA; experiment: peptide ELISA, alanine scan
T20 peptide: Biotin-HTANRAEDECVGEGLA

[23] = molecular target: T21, HER2-ECD-V505A (human, UniProt P04626 23-652); experiment: ELISA on coated HER2-ECD-V505A (printed HER2-ECD-E505A); V505A mutant (printed E505A)
T21 construct: Site-directed mutant of HER2-ECD-His-pTT5, expressed in HEK293E

[24] = molecular target: T2, human HER2-ECD protein (1 to 652 amino …); experiment: ELISA on coated human HER2-ECD; chimeric 19H6-ch, FIG. 22 experiment
[25] = molecular target: T22, human HER3 protein (human, UniProt P21860 20-643); experiment: ELISA, antigen coated at 0.2 µg/well
T22 construct: Bought

[26] = molecular target: T23, human HER4 protein (human, UniProt Q15303 26-649, limits assumed); experiment: ELISA, antigen coated at 0.2 µg/well
T23 construct: Bought
T23 sequence (looked up): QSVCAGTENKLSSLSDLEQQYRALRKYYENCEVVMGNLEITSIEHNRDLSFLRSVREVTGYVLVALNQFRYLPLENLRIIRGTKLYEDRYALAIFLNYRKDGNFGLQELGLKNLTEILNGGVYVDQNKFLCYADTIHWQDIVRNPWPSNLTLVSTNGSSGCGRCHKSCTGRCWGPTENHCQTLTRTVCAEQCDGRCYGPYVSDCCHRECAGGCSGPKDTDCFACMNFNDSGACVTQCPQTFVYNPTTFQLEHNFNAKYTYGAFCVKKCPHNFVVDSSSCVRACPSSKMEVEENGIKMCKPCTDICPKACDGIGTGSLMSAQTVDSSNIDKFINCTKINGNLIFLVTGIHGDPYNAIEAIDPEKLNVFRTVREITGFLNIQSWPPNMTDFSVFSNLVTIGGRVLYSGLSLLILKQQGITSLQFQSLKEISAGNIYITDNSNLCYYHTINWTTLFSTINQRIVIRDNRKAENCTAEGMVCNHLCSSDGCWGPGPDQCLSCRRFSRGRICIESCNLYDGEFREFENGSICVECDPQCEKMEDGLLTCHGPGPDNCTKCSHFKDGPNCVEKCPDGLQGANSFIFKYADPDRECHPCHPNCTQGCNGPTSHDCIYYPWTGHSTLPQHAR

[27] = molecular target: T24, human HER1 protein (human, UniProt P00533 25-645); experiment: ELISA, antigen coated at 0.2 µg/well
T24 construct: Bought

[28] = molecular target: T25, HER2-ECD protein of rat (rat, UniProt P06494 23-654); experiment: ELISA, antigen coated at 0.2 µg/well
T25 construct: extracellular domain; Bought; also called Rat-HER2-ECD

[29] = molecular target: T2, human HER2-ECD protein (1 to 652 amino …); experiment: ELISA on coated protein labelled HER2 on the sheet (taken as the human HER2-ECD of paragraph 112), positive control of the selectivity assay of Example 7
[30] = molecular target: T26, HER2-ECD protein of cynomolgus monkey (cynomolgus monkey, UniProt A0A2K5WUT7 1-622); experiment: ELISA, Cyno-HER2-ECD coated at 0.2 µg/well
T26 construct: extracellular domain; Bought; also called Cyno-HER2-ECD

[31] = molecular target: T2, human HER2-ECD protein (1 to 652 amino …); experiment: ELISA on coated human HER2-ECD; humanized 19H6-Hu
[32] = molecular target: T2, human HER2-ECD protein (1 to 652 amino …); experiment: Biacore, antibody captured on Protein A chip, HER2-ECD as analyte
[33] = molecular target: T2, human HER2-ECD protein (1 to 652 amino …); experiment: ELISA on coated human HER2-ECD; humanized 19H6-graft

EC50 [1]: 0.867 nM | EC50 [2]: 0.28 nM | EC50 [3]: 1.1 nM | EC50 [4]: 0.041 nM | binding result [5]: binds | binding result [6]: binds | binding result [7]: no binding | binding result [8]: no binding | binding result [9]: no binding | binding result [10]: binds | IC50 (read off the curve) [11]: ~1 nM | binding result [12]: binds | binding result [13]: binds | EC50 [14]: 0.05 nM | binding result [15]: binds | binding result [16]: binds | binding result [17]: binds | binding result [18]: binds | binding result [19]: binds | binding result [20]: binds | binding result [21]: binds | binding result [22]: binds | EC50 [23]: 0.038 nM
B1: murine anti-human HER2 monoclonal antibody 19H6 (antibody, V domains shown)
VH: QVQLQQSGPELVRPGESVKISCKGSGYTFTDYAIHWVKQSHAKSLEWIGVFSIYYENINYNQKFKGKATMTVDKSSSTAYLDLARLTSEDSAIYYCARRDGGTINYWGQGTSVTVSS
VL: DVVMTQTPLSLPVSLGDQASISCRSSQSLVHSNGNTYLHWYLQKPGQSPKLLIYKVSNRFSGVPDRFSGSGSGTDFTLKISRVEAEDLGVYFCSQSTHIPWTFGGGTKLEIK
notes: Hybridoma-derived mouse antibody purified on Protein G; also called murine antibody 19H6

EC50 [24]: 0.05 nM | EC50 [2]: 0.1 nM | EC50 [3]: 1.5 nM
B2: chimeric antibody 19H6-ch (antibody, human IgG1, kappa, V domains shown)
VH: QVQLQQSGPELVRPGESVKISCKGSGYTFTDYAIHWVKQSHAKSLEWIGVFSIYYENINYNQKFKGKATMTVDKSSSTAYLDLARLTSEDSAIYYCARRDGGTINYWGQGTSVTVSS
VL: DVVMTQTPLSLPVSLGDQASISCRSSQSLVHSNGNTYLHWYLQKPGQSPKLLIYKVSNRFSGVPDRFSGSGSGTDFTLKISRVEAEDLGVYFCSQSTHIPWTFGGGTKLEIKR
notes: 19H6 variable regions spliced with human IgG1 and kappa constant regions; expressed in HEK-293E

EC50 [3]: 1.9 nM | binding result [25]: no binding | binding result [26]: no binding | binding result [27]: no binding | binding result [28]: no binding | EC50 (read off the curve) [29]: ~0.1 nM | EC50 [30]: 0.1 nM | EC50 [31]: 0.06 nM | Kd [32]: 0.713 nM | koff [32]: 0.000111 s⁻¹ | kon [32]: 155000 M⁻¹ s⁻¹
B3: humanized antibody 19H6-Hu (antibody, human IgG1, kappa, V domains shown)
VH: QVQLVQSGAEVKKPGASVKVSCKGSGYTFTDYAIHWVRQAPGQSLEWIGVFSIYYENINYNQKFKGRATMTVDKSTSTAYMELRSLRSDDTAVYYCARRDGGTINYWGQGTLVTVSS
VL: DVVMTQSPLSLPVTLGQPASISCRSSQSLVHSNGNTYLHWYQQRPGQSPRLLIYKVSNRFSGVPDRFSGSGSGTDFTLKISRVEAEDVGVYFCSQSTHIPWTFGQGTKVEIKR

EC50 [33]: 0.5 nM
B4: humanized antibody 19H6-graft (antibody, human IgG1, kappa, V domains shown)
VH: QVQLVQSGAEVKKPGASVKVSCKASGYTFTDYAIHWVRQAPGQGLEWMGVFSIYYENINYNQKFKGRVTMTTDTSTSTAYMELRSLRSDDTAVYYCARRDGGTINYWGQGTLVTVSS
VL: DVVMTQSPLSLPVTLGQPASISCRSSQSLVHSNGNTYLHWFQQRPGQSPRRLIYKVSNRFSGVPDRFSGSGSGTDFTLKISRVEAEDVGVYYCSQSTHIPWTFGQGTKVEIKR
notes: Constant regions tied by the words 'The same constant region as that of 19H6-ch'
